# T1: human CD24 on cells (human, UniProt P25063 27-59)
# T1 chain (looked up): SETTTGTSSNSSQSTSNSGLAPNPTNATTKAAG
# Target: T1, human CD24 on cells
# Assay: cell-based or functional assay
"EC50 of Phagocytosis assay, IgG4, Kappa; HEK293-CD24 [µg/mL]","EC50 of Phagocytosis assay, IgG4, Kappa; MCF-7 [µg/mL]","EC50 of Phagocytosis assay, IgG4, Kappa; NALM6 [µg/mL]","EC50 of Phagocytosis assay, IgG4, Kappa; OVCAR3 [µg/mL]","EC50 of Phagocytosis assay, IgG1, Kappa; HEK293-CD24 [µg/mL]","EC50 of Phagocytosis assay, IgG1, Kappa; MCF-7 [µg/mL]","EC50 of Phagocytosis assay, IgG1, Kappa; NALM6 [µg/mL]","EC50 of Phagocytosis assay, IgG1, Kappa; OVCAR3 [µg/mL]",Binder
0.4,2.44,1.62,0.27,–,–,–,–,"76-F8C6, IgG4, Kappa (antibody, V domains shown) VH: EVKLEESGGGLVQPGGSMKLSCVASGFTFTNSWMNWVRQSPERGLDWVAQIQLKSDNYATRYVESVKGRFTISRDDSKNSVYLQMNNLRAEDTGIYYCTTGTDYWSQGTTLTVSS VL: not shown"
0.4,0.76,0.84,0.24,–,–,–,–,"75-H8B9, IgG4, Kappa (antibody, V domains shown) VH: EVNLEESGGGLVQPGGSRQLSCVASGLTFSKHWMNWVRQSPDKGLEWVAQIQLKSDNYAIRYVDSVKGRFTISRDDSENTVYLQMNNLRAEDTGIYYCTTGTDYWGQGTTLTVSS VL: not shown"
–,–,–,–,0.08,0.44,1.16,0.14,"75-H8B9, IgG1, Kappa (antibody, V domains shown) VH: EVNLEESGGGLVQPGGSRQLSCVASGLTFSKHWMNWVRQSPDKGLEWVAQIQLKSDNYAIRYVDSVKGRFTISRDDSENTVYLQMNNLRAEDTGIYYCTTGTDYWGQGTTLTVSS VL: not shown"
–,–,–,–,6.76,0.42,0.32,0.13,"85-D5A10 (4434), IgG1, Kappa (antibody, V domains shown) VH: EVQLQQSGPELVKPGASVKISCKASGYEFTGYHMNWVKQSPEKSLEWIGEINPITSDKTFNQKFKAKATLTVDRSSSTAYMHLKSLTSDDSAVYYCARRDYGTSLDYWGQGTTLTVSS VL: DVQITQSPSYLAASPGETITIYCRASKSISKYLAWYQEKPEKTIRLLIYAGSTLQSGIPSRFRGSGSGKDFTLTVSGLEPEDFAMYYCQQHNEYPITFGAGTKLELI"
–,–,–,–,0.2,0.33,0.23,0.15,"89-E8C12 (4428), IgG1, Kappa (antibody, V domains shown) VH: EVQLQQSGPELVKPGASVKISCKASGYDFTGYYMNWMKQSPEKSLEWIGEINPITSHNTFNQKFKAKATLTVDRSSSTAYMHLKSLTSEDSAVYYCARRDYGTSLDYWGQGTTLTVSS VL: DVQITQSPSYLAASPGETITIYCRASKSISKYLAWYQEKPEKTIRLLIYAGSTLQSGIPSRFRGSGSGTDFTLTVSGLEPEDFAMYYCQQHNEYPLTFGAGTKLELK"
0.51,1.28,0.68,0.71,–,–,–,–,"67-H2E7, IgG4, Kappa (antibody, V domains shown) VH: EVQLQQSGPELVKPGASVKISCKASGYEFTGYHMNWVKQSPEKSLEWIGEINPITSDKTFNQKFKAKATLTVDRSSTTAYMHLKSLTSEDSAVYYCARRDYDTSLDYWGQGTTLTVSS VL: DVQITQSPSYLAASPGETITIYCRASKSISKYLAWYQEKPEKTNRLLIYAGSTLQSGIPSRFRGSGSGKDFTLTVSGLEPEDFAMYYCQQHNEYPLTFGAGTKLDLK"
0.58,1.42,0.72,0.42,–,–,–,–,"79-E3H3, IgG4, Kappa (antibody, V domains shown) VH: EVQLQQSGPELVKPGASVKISCKASGYEFTGYHMNWVKQSPEKSLEWIGEINPITSDKTFNQKFKAKATLTVDRSSSTAYMHLKSLTSEDSAVYYCARRDYDTSLDYWGQGTTLTVSS VL: DVQITQSPSYLAASPGETITIYCRASKSISKYLAWYQEKPEKTNRLLIYAGSTLQSGIPSRFRGSGSGKDFTLTVSGLEPEDFAMYYCQQHNEYPLTFGAGTKLELK"
–,–,–,–,0.19,0.52,0.49,0.44,"79-E3H3, IgG1, Kappa (antibody, V domains shown) VH: EVQLQQSGPELVKPGASVKISCKASGYEFTGYHMNWVKQSPEKSLEWIGEINPITSDKTFNQKFKAKATLTVDRSSSTAYMHLKSLTSEDSAVYYCARRDYDTSLDYWGQGTTLTVSS VL: DVQITQSPSYLAASPGETITIYCRASKSISKYLAWYQEKPEKTNRLLIYAGSTLQSGIPSRFRGSGSGKDFTLTVSGLEPEDFAMYYCQQHNEYPLTFGAGTKLELK"
–,–,–,–,0.39,0.57,0.46,2.23,"80-F10A6, IgG1, Kappa (antibody, V domains shown) VH: EVQLQQSGPVLVNPGASVKISCKASGYSFTGYYMNWVKQSPEKSLEWIGEVNPITGDTTYSQNFKAKTTLTVDRSSSTAYMQLKSLTSEDSAVYYCTRRDYGTSLDYWGQGTTLTVSS VL: DVQITQSPSYLAASPGETITIHCRASKSISRYLAWYQEKPGKINTLLIYAGSTLHLGIPSRFSGSGSGTDFTLTISSLELEDFAMYYCQQHNEYPITFGAGTKLELK"
2.78,1.94,1.31,0.86,–,–,–,–,"90-D11B6, IgG4, Kappa (antibody, V domains shown) VH: EVQLQQSGPELVKPGASVRISCKASGYSFTGYYMNWVKQSPEKNLEWIGEINPITGGSTYNQKFVAKATLTVDRSSSTAYMQLKSLTSEDSAVYYCTRRDYDTSLDYWGQGTTLTVSS VL: DVQITQSPSYLAASPGETITINCRASKSISKYLAWYQEKPGKTIKLLIYAGSTLQSGIPSRFSGSGYGTDFTLTISSLEPEDFAMYYCQQHNEYPLTFGAGTKLELK"

# Further lines, the binder ahead of its results:
Binder,"EC50 of Phagocytosis assay, IgG4, Kappa; HEK293-CD24 [µg/mL]","EC50 of Phagocytosis assay, IgG4, Kappa; MCF-7 [µg/mL]","EC50 of Phagocytosis assay, IgG4, Kappa; NALM6 [µg/mL]","EC50 of Phagocytosis assay, IgG4, Kappa; OVCAR3 [µg/mL]","EC50 of Phagocytosis assay, IgG1, Kappa; HEK293-CD24 [µg/mL]","EC50 of Phagocytosis assay, IgG1, Kappa; MCF-7 [µg/mL]","EC50 of Phagocytosis assay, IgG1, Kappa; NALM6 [µg/mL]","EC50 of Phagocytosis assay, IgG1, Kappa; OVCAR3 [µg/mL]"
"66-D1B10, IgG4, Kappa (antibody, V domains shown) VH: EVRLEESGGGFVQPGGSMKLSCVASGLTFPNHWMNWVRQSPERGLAWVAQIQLKSDNYATRYVESVKGRFTISRDDSESTVYLQMNNLRAEDTGIYYCTTGTDYWGQGTTLTVSS VL: not shown",3.09,2.26,6.28,5.77,–,–,–,–
"67-H2E7, IgG1, Kappa (antibody, V domains shown) VH: EVQLQQSGPELVKPGASVKISCKASGYEFTGYHMNWVKQSPEKSLEWIGEINPITSDKTFNQKFKAKATLTVDRSSTTAYMHLKSLTSEDSAVYYCARRDYDTSLDYWGQGTTLTVSS VL: DVQITQSPSYLAASPGETITIYCRASKSISKYLAWYQEKPEKTNRLLIYAGSTLQSGIPSRFRGSGSGKDFTLTVSGLEPEDFAMYYCQQHNEYPLTFGAGTKLDLK",–,–,–,–,0.42,0.45,0.22,8.46
"59-G9D7, IgG4, Kappa (antibody, V domains shown) VH: QVQLQQPGADLVKPGASVKLSCKASGYTVTTYWMHWVRQRPGRGLEWIGRIDPNSGETKYSEKFKNKATLTVDRPSSTAYMQLSSLTFEDSAVYFCAIYYYLNNFLFDYWGQGTTLTVSS VL: ENVLTQSPAIMSASPGEKVTMTCRASSSVSSSYLHWYQKKSGASPKLWIYSTSNLASGVPARFSGSGSGTSYSLTISSVEAEDAATYYCQQYSGYPLTFGAGTKLELK",2.08,0.19,6.57,1.26,–,–,–,–
"62-F7E9, IgG4, Kappa (antibody, V domains shown) VH: QVQLQQPGAELVKPGASVKLSCKASGYTSTSYWLHWVKQRPGRGLEWIGRIDPNSGETKFNEKFKSQATLTVDKPSSTAYMQLNSLTSEDSAVYYCALYYYGSILFDYWGQGTTLTVSS VL: ENVLTQSPAIMSASPGEKVTMTCRTSSIISSGFLHWYQQKSGASPKLWIYSTSNLASGVPARFSGSGSGTSYSLTISSVEAEDAATYYCQQYSGHPLTFGAGTKLELK",10.5,0.21,0.01,1.41,–,–,–,–
"45-H1E4, IgG4, Kappa (antibody, V domains shown) VH: QIQLVQSGPELKKPGETVKISCKASGYTFTTYGMSWMKQAPGKGLKWMGWINTYSGVPAYADDFKGRFAFSLDTSASTAYLQINNLKNEDTATYFCARSGYPWSPHSYSTDYWGQGISVTVSS VL: DVLLTQTPLSLPVSLGDQASISCKSSQSIVHSNGNTYLEWYLQKPGQSPKRLIYKVSNRFSGVPDRFSGSGSGTDFTLKISRVEAEDLGVYYCFQGSHVPWTFGGGTKLEIK",0.9,7,5.36,3.35,–,–,–,–
"90-D11B6, IgG1, Kappa (antibody, V domains shown) VH: EVQLQQSGPELVKPGASVRISCKASGYSFTGYYMNWVKQSPEKNLEWIGEINPITGGSTYNQKFVAKATLTVDRSSSTAYMQLKSLTSEDSAVYYCTRRDYDTSLDYWGQGTTLTVSS VL: DVQITQSPSYLAASPGETITINCRASKSISKYLAWYQEKPGKTIKLLIYAGSTLQSGIPSRFSGSGYGTDFTLTISSLEPEDFAMYYCQQHNEYPLTFGAGTKLELK",–,–,–,–,1.31,1,1.19,0.59
"63-B10B9, IgG1, Kappa (antibody, V domains shown) VH: EVQLQQSGPELVKPGASVKISCKASGYSFTGYYMNWVKQSPEKSLEWIGEINPITGGTTYNQKFRAKATLTVDRSSSTAYMQLKSLTSEDSAVYYCTKRDYDTSLDYWGQGTTLIVSS VL: DVQITQSPSYLAAFPGETITINCRASKSIKKYLAWYQEKPGKTNNLLIYSGSTLQSGIPSRFSGSGTGTDFTLTISSLEPEDFAMYYCQQHNEYPLTFGAGTKLELK",–,–,–,–,7.02,1.06,1.91,0.56
"63-B10B9, IgG4, Kappa (antibody, V domains shown) VH: EVQLQQSGPELVKPGASVKISCKASGYSFTGYYMNWVKQSPEKSLEWIGEINPITGGTTYNQKFRAKATLTVDRSSSTAYMQLKSLTSEDSAVYYCTKRDYDTSLDYWGQGTTLIVSS VL: DVQITQSPSYLAAFPGETITINCRASKSIKKYLAWYQEKPGKTNNLLIYSGSTLQSGIPSRFSGSGTGTDFTLTISSLEPEDFAMYYCQQHNEYPLTFGAGTKLELK",1.14,17.1,6.16,9.85,–,–,–,–
